For assay [1], the target named is KcsA-Kv1.3 turret-filter chimera (Streptomyces lividans | human). In words: ELISA.
Assay [2] concerns the target KcsA-Kv1.3 turret-only chimera (Streptomyces lividans | human). The assay can be described thus: ELISA. For orientation: An ELISA detects its analyte on a solid surface through an enzyme-linked reagent.
For assay [3], the system named is human Kv1.3 channel (hKv1.3). In words: Whole-cell patch-clamp of phage-displayed toxins, hKv1.3 in human lymphocytes. To be noted: perfusion concentration; phage-displayed toxin; experimentally titrated; N = 3. The assay is classed as cell-based. How it is done:
Human Kv1.3 currents were recorded from activated peripheral blood mononuclear cells (see below) 3 to 4 days after activation. Heparinized human peripheral venous blood was obtained from healthy volunteers. Mononuclear cells were separated through Histopaque-1077 density gradient centrifugation. Collected cells were washed twice with Ca^2+- and Mg^2+-free Hanks’ solution containing 25 mM Hepes buffer, pH 7.4. Cells were cultured for 3 to 4 days in 24-well culture plates in a 5% CO2 incubator at 37 °C, in RPMI 1640 medium supplemented with 10% fetal calf serum (Sigma-Aldrich), 100 μg/ml penicillin, 100 μg/ml streptomycin, and 2 mM L-glutamine (density, 0.5 × 10^6 cells per ml). Phytohemagglutinin A (Sigma-Aldrich) was added to the medium at 10 μg/ml to amplify the Kv1.3 expression. Cells were washed gently twice with 2 ml of ECS for the patch-clamp experiments.
Conventional whole-cell patch-clamp electrophysiology was used to record ionic currents. Micropipettes were pulled from GC150F-7.5 borosilicate capillaries (Harvard Apparatus) with tip diameters between 0.5 and 1 μm resulting in a tip resistance of 2 to 8 MΩ in the extracellular (bath) solution. All measurements were carried out by using Axopatch 200B amplifier connected to a personal computer using Axon Digidata 1550A data acquisition hardware and Pclamp10.7 software (https://support.moleculardevices.com/s/article/Axon-pCLAMP-10-Electrophysiology-Data-Acquisition-Analysis-Software-Download-Page). The holding potential was −120 mV. Records were discarded when leak at the holding potential was >10% of peak current at the test potential. Experiments were performed at room temperature (20–24 °C). Before analysis, whole-cell current traces were corrected for ohmic leakage and digitally filtered with a three-point boxcar smoothing filter.
Solutions: all salts and components of the solutions were purchased from Sigma Aldrich. The extracellular (bath) solution (ECS) contained 145 mM NaCl, 5 mM KCl, 2.5 mM CaCl2, 1 mM MgCl2, 10 mM Hepes, and 5.5 mM glucose (pH 7.35 with NaOH), while the intracellular (pipette) solution (ICS) contained 140 mM KF, 2 mM MgCl2, 1 mM CaCl2, 11 mM EGTA, and 10 mM Hepes (pH 7.22 with KOH). The osmolarity of the ECS and ICS were 302 mOsM.
Native peptides, phage-expressed peptides, and positive controls used for them were dissolved in ECS supplemented with 0.1 mg/ml bovine serum albumin (BSA; Sigma-Aldrich Hungary). Bath perfusion around the measured cell with different extracellular solutions was achieved using a gravity flow micro perfusion system using a rate of 0.5 ml/min. Excess fluid was removed continuously.
Voltage protocols: For measurement of Kv1.1 to 1.3 currents, voltage steps to +50 mV were applied from a holding potential of −120 mV and the peak current was measured every 15 s. For Kv1.3 currents, 15-ms-long depolarizing pulses were applied. For Kv1.1, 50-ms-long–activating stimuli were used. Kv1.2 currents were evoked by 200-ms-long pulses. […] The remaining current fraction at a given molar concentration was calculated as I/I0, where I0 is the peak current in the absence and I is the peak current at equilibrium block or […] after ∼2 min perfusion by the investigated peptide/phage.
Phage display test solutions were prepared according to routine phage display protocols ([62]). Phosphorylated and annealed oligonucleotides encoding the peptide construct were ligated into linearized pAS62 phagemid vector (https://patents.google.com/patent/WO2022144560A1/en) at a vector/insert ratio of 1:3. The final phagemid construct harbored a signal sequence followed by the peptide of interest, a linker sequence ([…]), and the C-terminal part of the P3 coat protein (amino acids: 216-424 of NP_510891.1). Chemically competent XL1-Blue E. coli cells (2022249, Agilent) were transformed with the ligation product and then streaked onto ampicillin (100 μg/ml) containing LB/Amp plates and incubated for 16 h at 37 °C.
Background: Patch clamp records ionic current or voltage across a cell membrane.

In assay [4] the target is KcsA-Kv1.1 turret-only chimera (Streptomyces lividans | human). The assay can be described thus: ELISA.
For assay [5], the target named is KcsA-Kv1.1 turret-filter chimera (Streptomyces lividans | human). The assay can be described thus: ELISA.
For assay [6], the target named is KcsA-Kv1.2 turret-only chimera (Streptomyces lividans | human). In words: ELISA.
For assay [7], the target named is KcsA-Kv1.2 turret-filter chimera (Streptomyces lividans | human). The assay can be described thus: ELISA.
Assay [8] addresses KcsA-Kv1.1 turret-filter chimera (Streptomyces lividans | human). The assay can be described thus: SDS-PAGE and western blot; purified proteins, 0.5 ug/well, Tris-Glycine gradient gel, 200 V 55 min; western blot with anti-His antibody; monomers and tetramers by migration.
Assay [9] has the same target. In words: native gel or EMSA. On the technique in general: A gel shift assay detects complexes by their altered migration in electrophoresis.
Assay [10] deals with KcsA-Kv1.1 turret-only chimera (Streptomyces lividans | human). The assay can be described thus: SDS-PAGE and western blot; purified proteins, 0.5 ug/well, Tris-Glycine gradient gel, 200 V 55 min; western blot with anti-His antibody; monomers and tetramers by migration.
The target is the same in assay [11]. In words: native gel or EMSA.
For assay [12], the target named is KcsA-Kv1.2 turret-filter chimera (Streptomyces lividans | human). The assay can be described thus: native gel or EMSA.
Assay [13] addresses KcsA-Kv1.2 turret-only chimera (Streptomyces lividans | human). The assay can be described thus: native gel or EMSA.
Assay [14] has as its target KcsA-Kv1.3 turret-filter chimera (Streptomyces lividans | human). In words: SDS-PAGE and western blot; purified proteins, 0.5 ug/well, Tris-Glycine gradient gel, 200 V 55 min; western blot with anti-His antibody; monomers and tetramers by migration.
Assay [15] shares this target. The assay can be described thus: native gel or EMSA.
In assay [16] the target is KcsA-Kv1.3 turret-only chimera (Streptomyces lividans | human). The assay can be described thus: SDS-PAGE and western blot; purified proteins, 0.5 ug/well, Tris-Glycine gradient gel, 200 V 55 min; western blot with anti-His antibody; monomers and tetramers by migration.
The target is the same in assay [17]. The assay can be described thus: native gel or EMSA.
The target in assay [18] is human Kv1.3 voltage-gated potassium channel on activated human lymphocytes (human (endogenous in peripheral blood mononuclear cells)) (UniProt P22001).
Sequence of human Kv1.3 voltage-gated potassium channel on activated human lymphocytes (human (endogenous in peripheral blood mononuclear cells)) (P22001 whole entry): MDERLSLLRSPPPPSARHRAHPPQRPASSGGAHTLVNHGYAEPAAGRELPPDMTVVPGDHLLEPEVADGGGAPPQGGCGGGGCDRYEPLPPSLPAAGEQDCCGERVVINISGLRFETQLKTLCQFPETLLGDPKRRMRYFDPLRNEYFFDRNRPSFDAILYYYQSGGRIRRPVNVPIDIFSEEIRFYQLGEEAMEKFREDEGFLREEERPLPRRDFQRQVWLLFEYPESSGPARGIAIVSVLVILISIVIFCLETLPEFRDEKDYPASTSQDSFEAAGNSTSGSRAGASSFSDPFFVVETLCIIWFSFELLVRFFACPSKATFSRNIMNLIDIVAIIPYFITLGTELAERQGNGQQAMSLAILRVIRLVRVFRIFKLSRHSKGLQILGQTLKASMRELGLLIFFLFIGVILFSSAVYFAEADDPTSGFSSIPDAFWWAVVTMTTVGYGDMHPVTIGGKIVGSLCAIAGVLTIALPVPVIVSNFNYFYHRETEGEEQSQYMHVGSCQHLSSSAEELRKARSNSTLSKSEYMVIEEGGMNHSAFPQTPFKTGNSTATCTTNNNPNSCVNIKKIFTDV
Assay [19] has the same target. The source holds these as a separate data set.

For orientation: IC50 means the concentration needed to halve the response being measured. Read a high IC50 as weaker potency. “Hongotoxin-1, synthetic peptide (from UniProt P59847 1-39)”: the figures for the IC50 in [1] and in assay [2] were 0.108 nM and 0.671 nM, respectively.
Take “KTX1-phage: KTX1 fused to the P3 coat protein of M13 phage with an eight amino acid linker (GVEINVKCSGSPQCLKPCKDAGMRFGKCMNRKCHCTPK; not fully specified; left off: M13 P3 coat protein C-terminal part (amino acids 216-424 of NP_510891.1) behind the linker GSASSATR, C-terminal, kept)”: the “phage concentration giving approximate 50% block of hKv1.3 current” value in assay [3] was ~3.6 × 10^13 particle/ml.
Turning to “Kaliotoxin-1, synthetic peptide (from UniProt P24662 1-38)”, the IC50 in [4] amounted to 1.27 nM; in assay [1], 98.2 nM; in [2] it was 0.416 nM; in [5], 1.49 nM; in assay [6], 0.185 nM; in assay [7] it was 205 nM.
For orientation: stoichiometry N means the number of molecules, sites or subunits per partner or assembly. KcsA-Kv1.1 turret-filter chimera: the stoichiometry N in [8] and in [9] was 4 each time.
With KcsA-Kv1.1 turret-only chimera, the stoichiometry N in assay [10] and in assay [11] was 4 each time.
As to KcsA-Kv1.2 turret-filter chimera, the stoichiometry N in assay [12] is 4.
In assay [13], KcsA-Kv1.2 turret-only chimera registered a stoichiometry N of 4.
In the case of KcsA-Kv1.3 turret-filter chimera, the stoichiometry N in [14] and in [15] was 4 in each case.
KcsA-Kv1.3 turret-only chimera: the stoichiometry N in assay [16] and in assay [17] was 4 each time.
“Stichodactyla toxin ShK, synthetic peptide”: the IC50 in assay [4] was 0.317 nM; in assay [5] it was 0.271 nM; in [6], 0.07 nM; in assay [7] it was 15.9 nM.
Regarding “Vm24 toxin displayed on M13 phage as a fusion to the P3 coat protein (peptide)”, the estimated relative potency calculated from the phage concentration required to reach 50% blocking effect on the Kv1.3 current (relative potency) in assay [18] is 1. This molecule also yielded a phage concentration that gave a similar (50-70%) inhibition of the hKv1.3 current, whole-cell patch-clamp on human lymphocytes in assay [19] of 6e+10 particle/ml.
Turning to Vm24 toxin, synthetic peptide, the IC50 in [1] stood at 0.036 nM; in [2] it was 0.577 nM.

B1: Maurotoxin, synthetic peptide (peptide)
peptide: VSCTGSKDCYAPCRKQTGCPNAKCINKSCKCYGC
As to B1, the IC50 was above 1000 nM in assay [4], above 1000 nM in [5], above 1000 nM in assay [6] and 0.129 nM in [7].
